Where no end group is shown, it is not given here.
T1: Nck2_70-168 (human, UniProt O43639 70-168)
T1 sequence (looked up): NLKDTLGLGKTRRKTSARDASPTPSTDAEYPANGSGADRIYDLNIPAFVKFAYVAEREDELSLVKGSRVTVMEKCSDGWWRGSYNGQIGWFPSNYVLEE

T2: isolated 2nd SH3 domain (SH3.2) of human Nck2, residues 112-168 (human, UniProt O43639 112-168)
T2 sequence (looked up): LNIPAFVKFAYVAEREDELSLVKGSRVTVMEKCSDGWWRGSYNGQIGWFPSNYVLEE


What was measured:
[1] = target: EGFR 647-654 (Homo sapiens) (UniProt P00533); assay: NMR; conditions: cited from earlier work
[2] = target: T1, Nck2_70-168; assay: NMR titration
[3] = target: T2, isolated 2nd SH3 domain (SH3.2) of …; assay: NMR titration

Molecule	fold increase of Kd against the isolated SH3.2 domain [2] [fold]	other results
Nck1 SH3.2 (from UniProt P16333)	–	Kd [1]: 80 µM
LKDTLGLGKTRRKTSARDAS-NH2 [Nck2_71-90 peptide]	–	Kd [3]: ~1.7 mM

The next lines start with results.

fold increase of Kd against the isolated SH3.2 domain [2] [fold]	Molecule	other results
4.7	EVPVPPPVPPRR-NH2 [SOS1 peptide (1146-EVPVPPPVPPRR-1157)]	–
4.7	QDKPPAPPMRN-NH2 [Pak1 peptide (9-QDKPPAPPMRN-19)]	–

— publication PMC2899887 (Biochemistry, 2010)
